Data published in patent publication US12630600B2 (MEDIMMUNE LIMITED, priority 2022, dated 2026).
Starred links: 1 amine or outer side, 2 acyl side, 3 side chain; linkers in the order of their positions; H or OH if unused. Non-standard residues stand in square brackets, D forms with d. Groups on a side chain read outwards from the residue. No end group written: not given here. *: point of attachment. C20 diacid = O=C(O)CCCCCCCCCCCCCCCCCCC(=O)*; C18 diacid = O=C(O)CCCCCCCCCCCCCCCCC(=O)*; γGlu = O=C(O)[C@H](CCC(=O)[*:2])N[*:1]; αMeF = C[C@](N)(Cc1ccccc1)C(=O)O; AEEA = NCCOCCOCC(=O)O; Aib = CC(C)(N)C(=O)O

B1: Peptide 137 (peptide)
peptide: H[Aib]QGTFTSDVSK[αMeF]LDSK([γGlu-γGlu-AEEA-AEEA-γGlu-γGlu-C18 diacid])RAQDFVRWLLEG[Aib]-OH
modifications: N-terminus assumed
SMILES: CC(C)C[C@H](NC(=O)[C@H](CC(C)C)NC(=O)[C@H](Cc1c[nH]c2ccccc12)NC(=O)[C@H](CCCNC(=N)N)NC(=O)[C@@H](NC(=O)[C@H](Cc1ccccc1)NC(=O)[C@H](CC(=O)O)NC(=O)[C@H](CCC(N)=O)NC(=O)[C@H](C)NC(=O)[C@H](CCCNC(=N)N)NC(=O)[C@H](CCCCNC(=O)CC[C@H](NC(=O)CC[C@H](NC(=O)COCCOCCNC(=O)COCCOCCNC(=O)CC[C@H](NC(=O)CC[C@H](NC(=O)CCCCCCCCCCCCCCCCC(=O)O)C(=O)O)C(=O)O)C(=O)O)C(=O)O)NC(=O)[C@H](CO)NC(=O)[C@H](CC(=O)O)NC(=O)[C@H](CC(C)C)NC(=O)[C@](C)(Cc1ccccc1)NC(=O)[C@H](CCCCN)NC(=O)[C@H](CO)NC(=O)[C@@H](NC(=O)[C@H](CC(=O)O)NC(=O)[C@H](CO)NC(=O)[C@@H](NC(=O)[C@H](Cc1ccccc1)NC(=O)[C@@H](NC(=O)CNC(=O)[C@H](CCC(N)=O)NC(=O)C(C)(C)NC(=O)[C@@H](N)Cc1c[nH]cn1)[C@@H](C)O)[C@@H](C)O)C(C)C)C(C)C)C(=O)N[C@@H](CCC(=O)O)C(=O)NCC(=O)NC(C)(C)C(=O)O
B2: Peptide 138 (peptide)
peptide: H[Aib]QGTFTSDVSK[αMeF]LDSK([γGlu-γGlu-AEEA-AEEA-γGlu-γGlu-C18 diacid])RAQDFVRWLLE[Aib]G-OH
modifications: N-terminus assumed
SMILES: CC(C)C[C@H](NC(=O)[C@H](Cc1c[nH]c2ccccc12)NC(=O)[C@H](CCCNC(=N)N)NC(=O)[C@@H](NC(=O)[C@H](Cc1ccccc1)NC(=O)[C@H](CC(=O)O)NC(=O)[C@H](CCC(N)=O)NC(=O)[C@H](C)NC(=O)[C@H](CCCNC(=N)N)NC(=O)[C@H](CCCCNC(=O)CC[C@H](NC(=O)CC[C@H](NC(=O)COCCOCCNC(=O)COCCOCCNC(=O)CC[C@H](NC(=O)CC[C@H](NC(=O)CCCCCCCCCCCCCCCCC(=O)O)C(=O)O)C(=O)O)C(=O)O)C(=O)O)NC(=O)[C@H](CO)NC(=O)[C@H](CC(=O)O)NC(=O)[C@H](CC(C)C)NC(=O)[C@](C)(Cc1ccccc1)NC(=O)[C@H](CCCCN)NC(=O)[C@H](CO)NC(=O)[C@@H](NC(=O)[C@H](CC(=O)O)NC(=O)[C@H](CO)NC(=O)[C@@H](NC(=O)[C@H](Cc1ccccc1)NC(=O)[C@@H](NC(=O)CNC(=O)[C@H](CCC(N)=O)NC(=O)C(C)(C)NC(=O)[C@@H](N)Cc1c[nH]cn1)[C@@H](C)O)[C@@H](C)O)C(C)C)C(C)C)C(=O)N[C@@H](CC(C)C)C(=O)N[C@@H](CCC(=O)O)C(=O)NC(C)(C)C(=O)NCC(=O)O
B3: Peptide 142 (peptide)
peptide: H[Aib]QGTFTSDVSK[αMeF]LDSK([AEEA-AEEA-γGlu-C18 diacid])RARDFVAWLLE[Aib]G-OH
modifications: N-terminus assumed
SMILES: CC(C)C[C@H](NC(=O)[C@H](Cc1c[nH]c2ccccc12)NC(=O)[C@H](C)NC(=O)[C@@H](NC(=O)[C@H](Cc1ccccc1)NC(=O)[C@H](CC(=O)O)NC(=O)[C@H](CCCNC(=N)N)NC(=O)[C@H](C)NC(=O)[C@H](CCCNC(=N)N)NC(=O)[C@H](CCCCNC(=O)COCCOCCNC(=O)COCCOCCNC(=O)CC[C@H](NC(=O)CCCCCCCCCCCCCCCCC(=O)O)C(=O)O)NC(=O)[C@H](CO)NC(=O)[C@H](CC(=O)O)NC(=O)[C@H](CC(C)C)NC(=O)[C@](C)(Cc1ccccc1)NC(=O)[C@H](CCCCN)NC(=O)[C@H](CO)NC(=O)[C@@H](NC(=O)[C@H](CC(=O)O)NC(=O)[C@H](CO)NC(=O)[C@@H](NC(=O)[C@H](Cc1ccccc1)NC(=O)[C@@H](NC(=O)CNC(=O)[C@H](CCC(N)=O)NC(=O)C(C)(C)NC(=O)[C@@H](N)Cc1c[nH]cn1)[C@@H](C)O)[C@@H](C)O)C(C)C)C(C)C)C(=O)N[C@@H](CC(C)C)C(=O)N[C@@H](CCC(=O)O)C(=O)NC(C)(C)C(=O)NCC(=O)O
B4: Peptide 143 (peptide)
peptide: H[Aib]QGTFTSDVSK[αMeF]LDSK([AEEA-AEEA-γGlu-C18 diacid])RARDFVQWLLE[Aib]G-OH
modifications: N-terminus assumed
SMILES: CC(C)C[C@H](NC(=O)[C@H](Cc1c[nH]c2ccccc12)NC(=O)[C@H](CCC(N)=O)NC(=O)[C@@H](NC(=O)[C@H](Cc1ccccc1)NC(=O)[C@H](CC(=O)O)NC(=O)[C@H](CCCNC(=N)N)NC(=O)[C@H](C)NC(=O)[C@H](CCCNC(=N)N)NC(=O)[C@H](CCCCNC(=O)COCCOCCNC(=O)COCCOCCNC(=O)CC[C@H](NC(=O)CCCCCCCCCCCCCCCCC(=O)O)C(=O)O)NC(=O)[C@H](CO)NC(=O)[C@H](CC(=O)O)NC(=O)[C@H](CC(C)C)NC(=O)[C@](C)(Cc1ccccc1)NC(=O)[C@H](CCCCN)NC(=O)[C@H](CO)NC(=O)[C@@H](NC(=O)[C@H](CC(=O)O)NC(=O)[C@H](CO)NC(=O)[C@@H](NC(=O)[C@H](Cc1ccccc1)NC(=O)[C@@H](NC(=O)CNC(=O)[C@H](CCC(N)=O)NC(=O)C(C)(C)NC(=O)[C@@H](N)Cc1c[nH]cn1)[C@@H](C)O)[C@@H](C)O)C(C)C)C(C)C)C(=O)N[C@@H](CC(C)C)C(=O)N[C@@H](CCC(=O)O)C(=O)NC(C)(C)C(=O)NCC(=O)O
B5: Peptide 144 (peptide)
peptide: H[Aib]QGTFTSDVSK[αMeF]LDSK([γGlu-γGlu-AEEA-AEEA-γGlu-γGlu-C18 diacid])RARDFVRWLLE[Aib]G-OH
modifications: N-terminus assumed
SMILES: CC(C)C[C@H](NC(=O)[C@H](Cc1c[nH]c2ccccc12)NC(=O)[C@H](CCCNC(=N)N)NC(=O)[C@@H](NC(=O)[C@H](Cc1ccccc1)NC(=O)[C@H](CC(=O)O)NC(=O)[C@H](CCCNC(=N)N)NC(=O)[C@H](C)NC(=O)[C@H](CCCNC(=N)N)NC(=O)[C@H](CCCCNC(=O)CC[C@H](NC(=O)CC[C@H](NC(=O)COCCOCCNC(=O)COCCOCCNC(=O)CC[C@H](NC(=O)CC[C@H](NC(=O)CCCCCCCCCCCCCCCCC(=O)O)C(=O)O)C(=O)O)C(=O)O)C(=O)O)NC(=O)[C@H](CO)NC(=O)[C@H](CC(=O)O)NC(=O)[C@H](CC(C)C)NC(=O)[C@](C)(Cc1ccccc1)NC(=O)[C@H](CCCCN)NC(=O)[C@H](CO)NC(=O)[C@@H](NC(=O)[C@H](CC(=O)O)NC(=O)[C@H](CO)NC(=O)[C@@H](NC(=O)[C@H](Cc1ccccc1)NC(=O)[C@@H](NC(=O)CNC(=O)[C@H](CCC(N)=O)NC(=O)C(C)(C)NC(=O)[C@@H](N)Cc1c[nH]cn1)[C@@H](C)O)[C@@H](C)O)C(C)C)C(C)C)C(=O)N[C@@H](CC(C)C)C(=O)N[C@@H](CCC(=O)O)C(=O)NC(C)(C)C(=O)NCC(=O)O
B6: Peptide 136 (peptide)
peptide: H[Aib]QGTFTSDVSK[αMeF]LDSK([γGlu-γGlu-AEEA-AEEA-γGlu-γGlu-C18 diacid])RARDFVRWLLE[Aib]G-OH
modifications: N-terminus assumed
SMILES: CC(C)C[C@H](NC(=O)[C@H](Cc1c[nH]c2ccccc12)NC(=O)[C@H](CCCNC(=N)N)NC(=O)[C@@H](NC(=O)[C@H](Cc1ccccc1)NC(=O)[C@H](CC(=O)O)NC(=O)[C@H](CCCNC(=N)N)NC(=O)[C@H](C)NC(=O)[C@H](CCCNC(=N)N)NC(=O)[C@H](CCCCNC(=O)CC[C@H](NC(=O)CC[C@H](NC(=O)COCCOCCNC(=O)COCCOCCNC(=O)CC[C@H](NC(=O)CC[C@H](NC(=O)CCCCCCCCCCCCCCCCC(=O)O)C(=O)O)C(=O)O)C(=O)O)C(=O)O)NC(=O)[C@H](CO)NC(=O)[C@H](CC(=O)O)NC(=O)[C@H](CC(C)C)NC(=O)[C@](C)(Cc1ccccc1)NC(=O)[C@H](CCCCN)NC(=O)[C@H](CO)NC(=O)[C@@H](NC(=O)[C@H](CC(=O)O)NC(=O)[C@H](CO)NC(=O)[C@@H](NC(=O)[C@H](Cc1ccccc1)NC(=O)[C@@H](NC(=O)CNC(=O)[C@H](CCC(N)=O)NC(=O)C(C)(C)NC(=O)[C@@H](N)Cc1c[nH]cn1)[C@@H](C)O)[C@@H](C)O)C(C)C)C(C)C)C(=O)N[C@@H](CC(C)C)C(=O)N[C@@H](CCC(=O)O)C(=O)NC(C)(C)C(=O)NCC(=O)O
B7: Peptide 141 (peptide)
peptide: H[Aib]QGTFTSDVSK[αMeF]LDSK([AEEA-AEEA-γGlu-C18 diacid])RAQDFVAWLLE[Aib]G-OH
modifications: N-terminus assumed
SMILES: CC(C)C[C@H](NC(=O)[C@H](Cc1c[nH]c2ccccc12)NC(=O)[C@H](C)NC(=O)[C@@H](NC(=O)[C@H](Cc1ccccc1)NC(=O)[C@H](CC(=O)O)NC(=O)[C@H](CCC(N)=O)NC(=O)[C@H](C)NC(=O)[C@H](CCCNC(=N)N)NC(=O)[C@H](CCCCNC(=O)COCCOCCNC(=O)COCCOCCNC(=O)CC[C@H](NC(=O)CCCCCCCCCCCCCCCCC(=O)O)C(=O)O)NC(=O)[C@H](CO)NC(=O)[C@H](CC(=O)O)NC(=O)[C@H](CC(C)C)NC(=O)[C@](C)(Cc1ccccc1)NC(=O)[C@H](CCCCN)NC(=O)[C@H](CO)NC(=O)[C@@H](NC(=O)[C@H](CC(=O)O)NC(=O)[C@H](CO)NC(=O)[C@@H](NC(=O)[C@H](Cc1ccccc1)NC(=O)[C@@H](NC(=O)CNC(=O)[C@H](CCC(N)=O)NC(=O)C(C)(C)NC(=O)[C@@H](N)Cc1c[nH]cn1)[C@@H](C)O)[C@@H](C)O)C(C)C)C(C)C)C(=O)N[C@@H](CC(C)C)C(=O)N[C@@H](CCC(=O)O)C(=O)NC(C)(C)C(=O)NCC(=O)O

These binders were tested against human GLP-1 receptor (human, UniProt P43220) (assay: cell-based or functional assay).

| cAMP production, hGLP-1R EC50 (pM) | Binder |
| --- | --- |
| 143 | B1 |
| 104 | B2 |
| 59.4 | B3 |
| 630 | H[Aib]QGTFTSDVSK[αMeF]LDSK([γGlu-γGlu-AEEA-AEEA-γGlu-γGlu-C20 diacid])RAQDFVRWLLE[Aib]G-OH [Peptide 139] |
| 19.1 | B4 |
| 45.2 | B5 |
| 45.2 | B6 |
| 264 | B7 |

Each binder was assayed against human glucagon receptor (human, UniProt P47871) (assay: cell-based or functional assay).

| cAMP production, hGluc-R EC50 (pM) | Binder |
| --- | --- |
| 268 | B1 |
| 184 | B2 |
| 108 | B3 |
| 984 | H[Aib]QGTFTSDVSK[αMeF]LDSK([γGlu-γGlu-AEEA-AEEA-γGlu-γGlu-C20 diacid])RAQDFVRWLLE[Aib]G-OH [Peptide 139] |
| 32.6 | B4 |
| 702 | B5 |
| 509 | B6 |
| 392 | B7 |
